Data set [1] deals with T1, M. hungatei RuBisCO (Mh-RuBisCO) (Methanospirillum hungatei, UniProt Q2FSY4).
T1 construct: gene rbcL; recombinant in E. coli C43 (DE3), pET-15b, His6 tag cleaved by thrombin
Put plainly: coupled PGK / GAPDH carboxylase assay, NADH at […] nm; turnover only. The data set is classed as biochemical. Conditions: 2 mM RuBP, 50 mM NaHCO3, 20 mM MgCl2, pH 8.0, 25 °C, anaerobic.

Data set [2] concerns the target Methanospirillum hungatei phosphoribulokinase (MhPRK) (Methanospirillum hungatei). Put plainly: crystal structure; hanging-drop vapour diffusion at 20 °C; 2.5 Å; the asymmetric unit holds two MhPRK protomers (chains A and B) related by approximately two-fold noncrystallographic symmetry.
Substrate in data set [3]: O=C(CO)[C@H](O)[C@H](O)COP(=O)(O)O
The data set is described as follows: purified protein. The data set is classed as biochemical, Methanospirillum hungatei. To be noted: co-substrate ATP (2 mM), 10 mM MgCl2, 100 mM KCl, pH 8.0, 25 °C.

Substrate in data set [4]: Nc1ncnc2c1ncn2[C@@H]1O[C@H](COP(=O)(O)OP(=O)(O)OP(=O)(O)O)[C@@H](O)[C@H]1O
Put plainly: purified protein. The format is biochemical, Methanospirillum hungatei. Conditions: co-substrate Ru5P (2 mM), 10 mM MgCl2, 100 mM KCl, pH 8.0, 25 °C.

Substrate in data set [5]: O=C(CO)[C@H](O)[C@H](O)COP(=O)(O)O
The data set is described as follows: purified protein. The format is biochemical, Methanothrix soehngenii. To be noted: co-substrate ATP (2 mM), 10 mM MgCl2, 100 mM KCl, pH 8.0, 25 °C.

Substrate in data set [6]: Nc1ncnc2c1ncn2[C@@H]1O[C@H](COP(=O)(O)OP(=O)(O)OP(=O)(O)O)[C@@H](O)[C@H]1O
The data set is described as follows: purified protein. Conditions: co-substrate Ru5P (2 mM), 10 mM MgCl2, 100 mM KCl, pH 8.0, 25 °C. The format is biochemical, Methanothrix soehngenii.

Substrate in data set [7]: O=C(CO)[C@H](O)[C@H](O)COP(=O)(O)O
Put plainly: purified protein. The format is biochemical, Methanothrix thermoacetophila. To be noted: co-substrate ATP (2 mM), 10 mM MgCl2, 100 mM KCl, pH 8.0, 25 °C.

Substrate in data set [8]: Nc1ncnc2c1ncn2[C@@H]1O[C@H](COP(=O)(O)OP(=O)(O)OP(=O)(O)O)[C@@H](O)[C@H]1O
The data set is described as follows: purified protein. The data set is classed as biochemical, Methanothrix thermoacetophila. Conditions: co-substrate Ru5P (2 mM), 10 mM MgCl2, 100 mM KCl, pH 8.0, 25 °C.

T1 sequence (Q2FSY4 entry or part of it): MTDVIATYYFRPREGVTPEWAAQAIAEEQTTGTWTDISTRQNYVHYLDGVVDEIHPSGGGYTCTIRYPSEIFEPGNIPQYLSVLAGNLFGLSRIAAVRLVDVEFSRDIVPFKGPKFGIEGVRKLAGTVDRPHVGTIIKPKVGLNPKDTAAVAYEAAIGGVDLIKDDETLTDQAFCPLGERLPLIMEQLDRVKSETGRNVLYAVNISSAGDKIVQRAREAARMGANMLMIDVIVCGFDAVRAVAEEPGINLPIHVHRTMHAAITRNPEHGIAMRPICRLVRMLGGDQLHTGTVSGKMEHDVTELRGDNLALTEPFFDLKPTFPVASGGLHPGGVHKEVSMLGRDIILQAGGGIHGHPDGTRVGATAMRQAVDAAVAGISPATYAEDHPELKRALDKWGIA

On to `O=C(COP(=O)(O)O)[C@H](O)[C@H](O)COP(=O)(O)O` [RuBP], for which the “coupled PGK / GAPDH carboxylase assay, NADH at 340 nm; turnover only” value in data set [1] is on record as “M. hungatei RuBisCO was found to have a specific activity for the carboxylase reaction”.
What is called stoichiometry N is the number of molecules, sites or subunits per partner or assembly. As for “Methanospirillum hungatei phosphoribulokinase (MhPRK) (enzyme)”, in data set [2], the stoichiometry N was found to be 2.

B1: MhPRK (M. hungatei PRK homologue) (Methanospirillum hungatei JF-1) (protein)
chain: MSQPENFREVIRHSPLVYLIGVAGDSGSGKSTFTRAISDIFGEELVSSITVDDYHLYDRKTRSEMGITPLLHTANNLKLLEENLMDLKAGRTIQKPVYLHDHGTFGEPELFSPTKFIIIEGLHPYATKSLRALYDYTIFVDPERDVKYDWKIRRDMKKRNYDKNEVLREILQREPDYFQYVFPQREVADAVIQISYSSYGKEEGEKRNVYRVMLSMPAQEYCFEDIELNIDLCDLFKKSSHDFSLSCISHTPDSRNMRALVVDGELMPDTIHKIERQIEFQTGISPINIFRGQEHITGTDLVRLILSWQIINGRIALSNHLDQ
notes: recombinant in E. coli C43 (DE3), pET-15b, His6 tag cleaved by thrombin; homodimer; residues up to 323
The Km is the substrate concentration at which the rate is half of its maximum. B1: the values for the Km in “purified protein [3]” and in “purified protein [4]” were 280 ± 50 µM and 20.70 ± 1.70 µM, respectively.

B2: Methanosaeta concilii PRK homologue (Mcprk) (Methanothrix soehngenii GP6) (protein)
chain: MRSLKDRIRESGRVFVFGIAGDSGSGKTTISRGIRRILGEDMVATFSMDDYHSLDRRQRKERNITPLHPDANQFDLLAEHLEALRRNERIDKPVYDHRTGEISGTVPFGPAPVIIVEGLHPLYTERLRSQIDFKIFVDPSRSVKRLWKIRRDVGERGYETGQVMAEILQREPDYKLYVDIQKIYAQIVIKIQDSRFHPSLLDSQSTLDWYSVRLIMEIMEHPVSEVSMNIDLSKILRRSEHEFSIEFQRDDYYGKRVGIMTMDGEIHQSMISDLEKKLGESLGTDGMISDRREEYVNAIGLAQLILTWNCVEKLDYLLQEEGY
notes: recombinant in E. coli C43 (DE3), pET15b, His6 tag, purified as MhPRK (thrombin-cleaved)
As to B2, the figures for the Km in “purified protein [5]” and in “purified protein [6]” were 310 ± 80 µM and 17.91 ± 2.02 µM, respectively.

B3: Methanosaeta thermophila PRK homologue (Mtprk) (Methanothrix thermoacetophila PT) (protein)
chain: MRLLEKIRESGRVFVVAVAGDSGSGKTTFTRGIRRLLGEDVVSTFSMDDYHSLDRRQRKTLGITPLRPEANRFDLLAEHLAMLRRGLAIEKPVYDHTTGEIRGPVIFKPSPVIIVEGLHPFYTEELRKLSDFKIFVDPSRAVKRRWKLRRDVGERGYAPEDVMREILEREPDYKLYVDVQKVYAEMVIKIQDSRIPPEWTEIARGSAREKYSVRIIQQILDHPLDEVDLTIDLSRIMRLTEREFSIEFQRDDYYGKRVGVMTLDGEFPLTMIKDLERKLCDFLGRDVPSVTEGCQEDHGSYVNATEMTQLILIWRFLEKIANLAW
notes: as for B2
In the case of B3, the Km in the data set “purified protein [7]” worked out at 230 ± 50 µM; in the data set “purified protein [8]”, 5.66 ± 0.21 µM.

These data come from paper PMC5241800, “A RuBisCO-mediated carbon metabolic pathway in methanogenic archaea” (Nature Communications, 2017).
